Data as given in paper PMC12631112.

Key:
[1] = biological target: serum IgM of healthy donors (mu heavy and light chains) (human (endogenous in serum)); test: ELISA; IgM-CD5L ELISA: anti-human IgM (MH-15-1) coated captures IgM from serum diluted in HPE buffer, room temperature; IgM-bound CD5L detected with a-CD5L-HRP (clone 5B5, 0.5 µg/mL); compared to total IgM
[2] = biological target: IgM of patients with IgM MGUS and WM (n = 29), IgM-CD5L ELISA; test: as above
[3] = biological target: serum IgM of WM patient 11 (human (endogenous in serum)); test: SEC + ELISA; serum diluted in PBS fractionated by HP-SEC on Superose 6 increase 10/300 GL in PBS, 0.5 mL/min; IgM, IgM-J-chain and IgM-CD5L measured by ELISA in each 250 µL fraction

B1: CD5-Like (CD5L) (natural protein)
chain: SPSGVRLVGGLHRCEGRVEVEQKGQWGTVCDDGWDIKDVAVLCRELGCGAASGTPSGILYEPPAEKEQKVLIQSVSCTGTEDTLAQCEQEEVYDCSHDEDAGASCENPESSFSPVPEGVRLADGPGHCKGRVEVKHQNQWYTVCQTGWSLRAAKVVCRQLGCGRAVLTQKRCNKHAYGRKPIWLSQMSCSGREATLQDCPSGPWGKNTCNHDEDTWVECEDPFDLRLVGGDNLCSGRLEVLHKGVWGSVCDDNWGEKEDQVVCKQLGCGKSLSPSFRDRKCYGPGVGRIWLDNVRCSGEEQSLEQCQHRFWGFHDCTHQEDVAVICSG
Question: How did the ratio between IgM-CD5L complexes and total IgM [1] turn out when B1 was run?
Answer: The ratio between IgM-CD5L complexes and total IgM was 1.

Question: And the ratio between IgM-CD5L complexes and total IgM [2]?
Answer: The ratio between IgM-CD5L complexes and total IgM was 0.1.

Question: And the percent of IgM molecules that contain CD5L [3]?
Answer: Its percent of IgM molecules that contain CD5L is 10%.
